Experimental data published in patent US9518084B2, “Epitope tag for affinity-based applications” (VIB VZW, priority 2010, dated 2016).

Tests used:
[1] = test system: EPEA (SEQ ID NO:1)-tagged Rev protein; assay: In vivo detection of EPEA-tagged Rev in transfected HeLa cells by confocal microscopy; assay type: cell-based, HIV; settings: nanobody fused to mKO1 or GFP, GYQDYEPEA and EPEA tags
Source text: In another set of experiments, we explored the use of the EPEA (SEQ ID NO:1) tag to detect/visualize the expression of recombinant proteins within a (living) eukaryotic cell. […] Cells that are double-transfected with Rev-[sequence] (SEQ ID NO:10) or Rev-[sequence]
The two different tags [sequence] (SEQ ID NO:2) and EPEA (SEQ ID NO:1) were C-terminal fused to Rev by PCR using Takara Ex Taq polymerase (TAKARA BIO INC).
HeLa, human epithelial cells were maintained using standard procedures until confluent in DMEM medium with 10% fetal calf serum. For transfection of plasmid DNA in HeLa, cells were harvested by a Trypsin/EDTA treatment, counted and plated onto glass bottom microwell dishes (MatTek corporation). Transfections were preformed according to manufacturer's manual: the 4×10^5 cells were seeded in a 35 mm dish. […]
Transfected HeLa cells were imaged with a laser scanning SP5 confocal microscope (Leica Microsystems) equipped with an AF 6000 microscope and an AOBS, using a HCX PL APO×63 (NA 1.2) water immersion objective magnification. GFP was monitored with the Ar laser using the 488-nm line for excitation, and emission was detected between 492 and 570 nm. mKusabira orange fluorescent protein (mKO) was imaged using the DPSS-561 nm laser for excitation, and emission was detected between 570 and 675 nm.

[2] = test system: Nb458-gaaEPEA (SEQ ID NO:8); assay: Solid phase ELISA, bivalent versus monovalent NbSyn2 alkaline phosphatase conjugate; assay type: binding; settings: alkaline phosphatase conjugates, dilutions 1/250 to 1/4000, OD405
Sequence of Nb458-gaaEPEA (SEQ ID NO:8) (as listed by the source): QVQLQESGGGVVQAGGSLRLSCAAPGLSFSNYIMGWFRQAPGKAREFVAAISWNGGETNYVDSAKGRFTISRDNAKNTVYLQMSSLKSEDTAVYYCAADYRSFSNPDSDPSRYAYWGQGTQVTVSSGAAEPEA

Molecule	Recognition of tagged Rev in double-transfected cells (colocalization in the nucleus) [1]	Sensitivity of ELISA detection compared with monovalent NbSyn2-AP conjugate [2]
NbSyn1a: Nanobody that specifically binds to α-synuclein, 126 amino acids, SEQ ID NO:24 (protein, Nb_Syn1a) VHH: EVQLVESGGGSVQAGGSLSLACAPSGLNASSYCMGWFRQSPGKEREGVARINGNAGIKTAYADSVKDRFTLSRDNAKNTVYLQMNSLKAEDSAIYFCAAKSSPGYCGGNWDNFGYWGQGTQVTVSS	recognized in vivo	–
biNbSyn2: bivalent version of NbSyn2 (SEQ ID NO:68) with a GGGGSGGGS linker between both NbSyn2 sequences (protein, Nanobody biNbSyn2) QVQLVESGGGSVQAGGSLRLSCAASGIDSSSYCMGWFRQRPGKEREGVARINGLGGVKTAYADSVKDRFTISRDNAENTVYLQMNSLKPEDTAIYYCAAKFSPGYCGGSWSNFGYWGQGTQVTVSSGGGGSGGGSQVQLQESGGGSVQAGGSLRLSCAASGIDSSSYCMGWFRQRPGKEREGVARINGLGGVKTAYADSVKDRFTISRDNAENTVYLQMNSLKPEDTAIYYCAAKFSPGYCGGSWSNFGYWGQGTQVTVSSHHHHHH	–	sensitivity of detection increases
